Data set [1] deals with bovine plasminogen (bovine) (UniProt P06868). The data set can be described thus: cell-based or functional assay.
Data set [2] has as its target bovine plasminogen (UniProt P06868).
Data set [3] deals with T1, bovine plasminogen, P06868.
T1 chain: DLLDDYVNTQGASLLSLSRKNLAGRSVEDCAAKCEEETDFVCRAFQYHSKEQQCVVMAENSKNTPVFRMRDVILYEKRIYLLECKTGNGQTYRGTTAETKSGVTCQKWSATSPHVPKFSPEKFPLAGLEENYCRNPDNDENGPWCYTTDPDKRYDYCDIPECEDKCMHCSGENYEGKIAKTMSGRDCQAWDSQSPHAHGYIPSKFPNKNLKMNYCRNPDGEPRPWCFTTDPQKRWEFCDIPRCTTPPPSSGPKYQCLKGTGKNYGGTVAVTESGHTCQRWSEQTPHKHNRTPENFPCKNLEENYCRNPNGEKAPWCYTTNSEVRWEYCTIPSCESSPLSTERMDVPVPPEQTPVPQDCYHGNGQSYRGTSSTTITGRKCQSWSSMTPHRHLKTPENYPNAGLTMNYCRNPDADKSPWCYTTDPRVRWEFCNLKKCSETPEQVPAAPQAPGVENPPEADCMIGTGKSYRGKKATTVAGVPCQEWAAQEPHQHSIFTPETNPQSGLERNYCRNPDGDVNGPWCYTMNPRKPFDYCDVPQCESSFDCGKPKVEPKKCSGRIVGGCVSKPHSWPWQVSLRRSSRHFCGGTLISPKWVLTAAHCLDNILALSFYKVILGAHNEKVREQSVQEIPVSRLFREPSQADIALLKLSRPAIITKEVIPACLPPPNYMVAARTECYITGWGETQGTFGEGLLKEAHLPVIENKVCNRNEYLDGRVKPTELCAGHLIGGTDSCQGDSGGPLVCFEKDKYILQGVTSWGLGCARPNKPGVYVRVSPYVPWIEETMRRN

For the molecule “full-length recombinant PauA of S. uberis strain 95-140 expressed from pER326 in E. coli strain Pz326 (enzyme)”, in data set [1], the Titer, chromogenic assay of whole cell pellet (titer (inverse of dilution factor)) is 23.3.

Consider “full-length recombinant PauA of S. uberis strain 95-140 expressed from pER330 in E. coli strain Pz330 (enzyme)”, for which the Titer, chromogenic assay of whole cell pellet (titer (inverse of dilution factor)) in data set [1] was determined as 1.

Regarding “purified native PauA (strain not stated where used)”, in data set [2], the “enzymatic activity, chromogenic assay titer” value is given as “titer=3256” and the specific activity entry is “the specific activity for native PauA was 5.9 chromogenic units/µg”.

The molecule “signal peptide-deleted recombinant PauA of S. uberis strain 95-140 expressed from pER328 in E. coli strain Pz328 (enzyme)” gave a Titer, chromogenic assay of whole cell pellet (titer (inverse of dilution factor)) in data set [1] of 5.3.

B1: GST-PauA^28-286 fusion protein (pER356) (protein)
chain: GYDSDYYARYIDPDENKITFAINVDGFVEGSNQEILIRGIHHVLTNQNQKIVTKAELLDAIRHQMVLLQLDYSYELVDFAPDAQLLTRDRRLLFANRNFEESVSLEDTIQEYLLKGHVILRKRVEEPITHPTETANIEYKVQFATKDGEFHPLPIFVDYGEKHIGEKLTSDEFRKIAEEKLLQRYPDYMIDQKEYTIIKHNSLGQLPRYYSYPDDFSYEIQDRQRIMAKDPKSGKELGETQSIDNVFEKYLITKKSYKP
Regarding B1, in data set [3], the “enzymatic activity, chromogenic assay titer” value was “titer=3448” and the specific activity result is listed as “the specific activity of GST-PauA^28-286 was 1.4”.

B2: PauA from S. uberis strain c216 expressed by E. coli strain Pz318 (plasmid pER318) (protein)
chain: MKKWFLILMLLGIFGCATQPSKVAAITGYDSDYYARYIDPDENKITFAINVDGFVEGSNQEILIRGIHHVLTDQNQKIVTKAELLDAIRHQMVLLQLDYSYELVDFAPDAQLLTQDRRLLFANQNFEESVSLEDTIQEYLLKGHVILRKRVEEPITHPTETANIEYKVQFATKDGEFHPLPIFVDYGEKHIGEKLTSDEFRKIAEEKLLQLYPDYMIDQKEYTIIKHNSLGQLPRYYSYQDHFSYEIQDRQRIMAKDPKSGKELGETQSIDNVFEKYLITKKSYKP
Regarding B2, the “zone of clearing on skim-milk plates with or without bovine plasminogen” value in data set [3] is “their ability to express plasminogen-dependent PauA activity was confirmed by their inability to produce a zone of clearing following growth of individual colonies on plasminogen-free skim-milk plates”.

B3: PauA from S. uberis strain 95-140 expressed by E. coli strain Pz319 (plasmid pER319) (protein)
chain: MKKWFLILMLLGIFGCATQPSKVAAITGYDSDYYARYIDPDENKITFAINVDGFVEGSNQEILIRGIHHVLTNQNQKIVTKAELLDAIRHQMVLLQLDYSYELVDFAPDAQLLTRDRRLLFANRNFEESVSLEDTIQEYLLKGHVILRKRVEEPITHPTETANIEYKVQFATKDGEFHPLPIFVDYGEKHIGEKLTSDEFRKIAEEKLLQRYPDYMIDQKEYTIIKHNSLGQLPRYYSYPDDFSYEIQDRQRIMAKDPKSGKELGETQSIDNVFEKYLITKKSYKP
On to B3, for which, in data set [3], the “zone of clearing on skim-milk plates with or without bovine plasminogen” value is listed as “their ability to express plasminogen-dependent PauA activity was confirmed by their inability to produce a zone of clearing following growth of individual colonies on plasminogen-free skim-milk plates”.

The values are drawn from patent US6485904.
